Laboratory results as given in patent US20240409637A1.

How the values were obtained:
[1] = target: human CD8 alpha and beta subunit on JRT3.T3/AP1-Luc/CD28/CD8AB/1G4AB clone 18 reporter T cells (human) (UniProt P01732); test: cell-based or functional assay
[2] = target: human CD8 on cells (primary human CD8 positive T cells; T cells of mice expressing hCD8; human PBMC-derived lymphocytes) (human) (UniProt P01732); test: cell-based or functional assay
Chain of human CD8 on cells (primary human CD8 positive T cells; T cells of mice expressing hCD8; human PBMC-derived lymphocytes) (human) (P01732 22-235, chain 1 of 2): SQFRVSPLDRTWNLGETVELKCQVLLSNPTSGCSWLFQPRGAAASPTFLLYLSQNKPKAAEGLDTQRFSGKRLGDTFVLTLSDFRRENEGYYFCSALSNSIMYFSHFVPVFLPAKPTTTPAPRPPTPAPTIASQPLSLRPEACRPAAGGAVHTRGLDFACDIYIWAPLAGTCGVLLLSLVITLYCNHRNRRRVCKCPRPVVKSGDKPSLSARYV
Chain of human CD8 on cells (primary human CD8 positive T cells; T cells of mice expressing hCD8; human PBMC-derived lymphocytes) (human) (chain, as listed by the source, chain 2 of 2): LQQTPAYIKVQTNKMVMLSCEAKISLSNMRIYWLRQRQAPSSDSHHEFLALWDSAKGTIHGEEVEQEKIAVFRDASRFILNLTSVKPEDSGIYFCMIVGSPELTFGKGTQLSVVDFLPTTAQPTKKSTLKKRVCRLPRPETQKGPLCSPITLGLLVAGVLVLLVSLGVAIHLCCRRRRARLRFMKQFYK

Chain of human CD8 alpha and beta subunit on JRT3.T3/AP1-Luc/CD28/CD8AB/1G4AB clone 18 reporter T cells (human) (P01732 22-235, chain 1 of 2): as the sequence (P01732 22-235, chain 1 of 2) above
Chain of human CD8 alpha and beta subunit on JRT3.T3/AP1-Luc/CD28/CD8AB/1G4AB clone 18 reporter T cells (human) (P10966 22-210, chain 2 of 2, further chain): as the sequence (chain, as listed by the source, chain 2 of 2) above

In the case of “Clone RPA-T8 (commercially available anti-CD8 antibody)”, the IC50 [M], reduction of AP1-luciferase activity in CD8 T cell/APC luciferase assay [1] is reported as 1.61e-10 M and the Reduction of T cell response at 100 nM [%], CD8 T cell/APC luciferase assay [1] is reported as 97.9%.
Substance “isotype control antibody (irrelevant isotype matched antibody)” has a Percent Inhibition of IFNγ Production, one-way MLR Reaction 1, 0.5 nM antibody [2] of 0.5%, a Percent Inhibition of IFNγ Production, one-way MLR Reaction 1, 5 nM antibody [2] of 3.9% and a Percent Inhibition of IFNγ Production, one-way MLR Reaction 1, 50 nM antibody [2] of -6.6%. It also gave a Percent Inhibition of IFNγ Production, one-way MLR Reaction 2, 0.5 nM antibody [2] of 2.3%, a Percent Inhibition of IFNγ Production, one-way MLR Reaction 2, 5 nM antibody [2] of 3.4% and a Percent Inhibition of IFNγ Production, one-way MLR Reaction 2, 50 nM antibody [2] of 25.4%.
Isotype 1 (antibody) gave a Reduction of T cell response at 100 nM [%], CD8 T cell/APC luciferase assay [1] of 7.4%.
Isotype 2 (antibody) was tested, and the Reduction of T cell response at 100 nM [%], CD8 T cell/APC luciferase assay [1] was 6.2%.
